Assays:
[1] = target: human bradykinin B2 receptor mutant #1 (found in HAE patients) (human) (UniProt P30411); experiment: radioligand binding; competition binding with radiolabeled BK (3H-BK); HEK293T cells transiently transfected with human wild-type or mutant B2R
[2] = target: human bradykinin B2 receptor mutant #2 (found in HAE patients) (human) (UniProt P30411); experiment: as above
[3] = target: T1, commercially available active FXI (UniProt P03951 19-625); experiment: SDS-PAGE of enzyme/C1-INH complexes; molar equivalent quantities of active enzymes and of C1-INH; conditions: both partners purified
T1 construct: active coagulation factor XI (cleaved into disulfide-linked heavy and light chains); also called active factor XI; source: bought: commercially available
T1 sequence (P03951 19-625): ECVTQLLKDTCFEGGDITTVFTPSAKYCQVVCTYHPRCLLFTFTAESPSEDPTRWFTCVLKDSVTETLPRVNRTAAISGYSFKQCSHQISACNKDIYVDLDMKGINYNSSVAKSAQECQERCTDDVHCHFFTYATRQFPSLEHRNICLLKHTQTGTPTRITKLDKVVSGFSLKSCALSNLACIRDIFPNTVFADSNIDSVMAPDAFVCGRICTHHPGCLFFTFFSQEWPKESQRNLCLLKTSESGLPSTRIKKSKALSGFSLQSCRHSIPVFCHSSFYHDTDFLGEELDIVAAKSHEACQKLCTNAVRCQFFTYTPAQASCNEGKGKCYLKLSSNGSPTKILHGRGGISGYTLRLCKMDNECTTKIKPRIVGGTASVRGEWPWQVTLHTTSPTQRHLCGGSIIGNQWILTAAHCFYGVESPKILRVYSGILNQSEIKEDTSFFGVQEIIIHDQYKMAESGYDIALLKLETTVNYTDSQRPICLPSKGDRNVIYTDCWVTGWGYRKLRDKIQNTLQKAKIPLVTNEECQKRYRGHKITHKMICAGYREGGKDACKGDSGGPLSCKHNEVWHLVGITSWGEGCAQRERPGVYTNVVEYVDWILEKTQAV

Sequence of Bradykinin (P01042 whole entry, looked up): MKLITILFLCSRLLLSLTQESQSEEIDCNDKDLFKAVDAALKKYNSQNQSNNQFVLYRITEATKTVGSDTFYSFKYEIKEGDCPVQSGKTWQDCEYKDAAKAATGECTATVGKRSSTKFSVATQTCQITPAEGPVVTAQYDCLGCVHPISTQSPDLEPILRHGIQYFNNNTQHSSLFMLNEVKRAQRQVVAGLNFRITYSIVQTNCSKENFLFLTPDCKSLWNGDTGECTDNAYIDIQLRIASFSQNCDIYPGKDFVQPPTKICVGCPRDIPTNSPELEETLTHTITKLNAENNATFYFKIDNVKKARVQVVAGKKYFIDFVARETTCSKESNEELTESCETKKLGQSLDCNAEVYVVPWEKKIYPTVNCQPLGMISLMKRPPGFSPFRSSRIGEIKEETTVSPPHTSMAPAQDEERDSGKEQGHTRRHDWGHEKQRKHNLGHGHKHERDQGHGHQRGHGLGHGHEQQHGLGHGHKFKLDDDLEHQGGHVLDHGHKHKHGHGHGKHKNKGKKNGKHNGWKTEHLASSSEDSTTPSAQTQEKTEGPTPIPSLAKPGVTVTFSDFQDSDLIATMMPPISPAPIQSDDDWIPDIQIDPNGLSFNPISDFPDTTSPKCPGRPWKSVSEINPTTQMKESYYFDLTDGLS
Sequence of human bradykinin B2 receptor mutant #1 (found in HAE patients) (human) (P30411 whole entry, stated change not applied): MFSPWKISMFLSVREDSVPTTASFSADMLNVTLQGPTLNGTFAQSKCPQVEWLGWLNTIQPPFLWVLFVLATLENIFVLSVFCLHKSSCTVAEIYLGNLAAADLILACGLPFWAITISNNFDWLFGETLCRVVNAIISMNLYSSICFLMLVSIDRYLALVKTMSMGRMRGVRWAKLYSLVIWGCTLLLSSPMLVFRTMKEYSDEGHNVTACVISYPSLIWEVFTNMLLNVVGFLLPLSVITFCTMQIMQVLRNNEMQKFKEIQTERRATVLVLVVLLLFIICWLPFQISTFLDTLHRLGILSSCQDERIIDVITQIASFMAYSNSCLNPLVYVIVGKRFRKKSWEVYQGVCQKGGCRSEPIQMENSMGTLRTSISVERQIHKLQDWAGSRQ
Sequence of human bradykinin B2 receptor mutant #2 (found in HAE patients) (human) (P30411 whole entry, change not shown): as the sequence (P30411 whole entry, stated change not applied) above

Molecule	affinity [1] [nM]	affinity [2] [nM]	binding result [3]
Bradykinin (from UniProt P01042 381-389) (peptide)	0.35	0.46	–
commercial plasma-derived C1-INH, further purified by ion-exchange chromatography (natural protein, UniProt P05155 23-500, looked up, source: bought: commercial plasma-derived C1-INH, further purified by ion-exchange chromatography) NPNATSSSSQDPESLQDRGEGKVATTVISKMLFVEPILEVSSLPTTNSTTNSATKITANTTDEPTTQPTTEPTTQPTIQPTQPTTQLPTDSPTQPTTGSFCPGPVTLCSDLESHSTEAVLGDALVDFSLKLYHAFSAMKKVETNMAFSPFSIASLLTQVLLGAGENTKTNLESILSYPKDFTCVHQALKGFTTKGVTSVSQIFHSPDLAIRDTFVNASRTLYSSSPRVLSNNSDANLELINTWVAKNTNNKISRLLDSLPSDTRLVLLNAIYLSAKWKTTFDPKKTRMEPFHFKNSVIKVPMMNSKKYPVAHFIDQTLKAKVGQLQLSHNLSLVILVPQNLKHRLEDMEQALSPSVFKAIMEKLEMSKFQPTLLTLPRIKVTTSQDMLSIMEKLEFFDFSYDLNLCGLTEDPDLQVSAMQHQTVLELTETGVEAAAASAISVARTLLVFEVQQPFLFVLWDQQHKFPVFMGRVYDPRA	–	–	binds

Reference: article PMC5496025, “Abstracts from the 10th C1-inhibitor deficiency workshop” (Allergy, Asthma, and Clinical Immunology : Official Journal …, 2017)
